The Kd is a measure of binding affinity in units of concentration. A lower Kd goes with tighter binding. Broadly, the koff is the first-order rate constant of dissociation. Read a low koff as slow dissociation. One may read the kon as the second-order rate constant of association.

Experiment [1] deals with CD4-induced (CD4i) monoclonal antibody 17b. The experiment can be described thus: SPR (BIACORE 2000), MAb 17b amine-coupled to CM5 chip, gp120 as analyte, 25 C. (In general: Surface plasmon resonance follows binding to a sensor surface in real time, without labels.)
In experiment [2] the target is CD4-induced (CD4i) monoclonal antibody 48d. The experiment can be described thus: SPR (BIACORE 2000), MAb 48d amine-coupled to CM5 chip, gp120 as analyte, 25 C.
In experiment [3] the target is 8x-V3BaL Env (whole Env, on virions or effector cells) (HIV-1). The experiment can be described thus: cell-based or functional assay.
The target in experiment [4] is IIIB-V3BaL Env on luciferase reporter virions (HIV-1). The experiment can be described thus: cell-based or functional assay.

In experiment [1], “8x gp120 (soluble gp120 of the HIV-1/IIIBx 8x Env clone) (from UniProt P04578 33-511)” returned a dissociation constant Kd of 0.015 µM, a koff of 0.002 s⁻¹ and an on-rate constant (kon) of 100000 M⁻¹ s⁻¹. In experiment [2], the equilibrium dissociation constant (Kd) was found to be 0.006 µM, the koff was 0.001 s⁻¹ and the kon turned out to be 200000 M⁻¹ s⁻¹.

In experiment [3], “CD4-induced (CD4i) monoclonal antibody 17b” returned a concentration for 50% neutralisation of luciferase reporter virus on GHOST-CCR5 cells of 2 ng/mL and a concentration for 90% neutralisation of luciferase reporter virus on GHOST-CCR5 cells of 15 ng/mL. In experiment [4], this substance had a concentration for 50% neutralisation of luciferase reporter virus on GHOST-CCR5 cells of 14 ng/mL and a concentration for 90% neutralisation of luciferase reporter virus on GHOST-CCR5 cells of 90 ng/mL.

Consider “CD4-induced (CD4i) monoclonal antibody 48d”, for which, in experiment [3], the concentration for 50% neutralisation of luciferase reporter virus on GHOST-CCR5 cells was 3 ng/mL, the concentration for 90% neutralisation of luciferase reporter virus on GHOST-CCR5 cells was above 200 ng/mL and the percent neutralisation at 200 ng/ml is 88%. In experiment [4], the concentration for 50% neutralisation of luciferase reporter virus on GHOST-CCR5 cells was above 5000 ng/mL and the concentration for 90% neutralisation of luciferase reporter virus on GHOST-CCR5 cells was above 5000 ng/mL.

monoclonal antibody 50.1: in experiment [3], the concentration for 50% neutralisation of reporter virus stood at 45 ng/mL and the concentration for 90% neutralisation of reporter virus worked out at 610 ng/mL. In experiment [4], this substance gave a concentration for 50% neutralisation of reporter virus of 95 ng/mL and a concentration for 90% neutralisation of reporter virus of 375 ng/mL.
